Data taken from patent US20260146107A1 (ALLIGATOR BIOSCIENCE, published 2026).

Assays:
[1] = target: T1, human CEACAM5, recombinant (R&D Systems #4128-CM-050) (human, UniProt P06731 35-685); experiment: ELISA, antigen coated at 0.5 µg/mL, bsAb titrated, anti-human kappa-HRP, luminescence
T1 construct: Bought; coated in ELISA and used as monomeric analyte in Octet; also called hCEACAM-5; Human CEACAM5-His; not shown: His tag
T1 sequence (looked up): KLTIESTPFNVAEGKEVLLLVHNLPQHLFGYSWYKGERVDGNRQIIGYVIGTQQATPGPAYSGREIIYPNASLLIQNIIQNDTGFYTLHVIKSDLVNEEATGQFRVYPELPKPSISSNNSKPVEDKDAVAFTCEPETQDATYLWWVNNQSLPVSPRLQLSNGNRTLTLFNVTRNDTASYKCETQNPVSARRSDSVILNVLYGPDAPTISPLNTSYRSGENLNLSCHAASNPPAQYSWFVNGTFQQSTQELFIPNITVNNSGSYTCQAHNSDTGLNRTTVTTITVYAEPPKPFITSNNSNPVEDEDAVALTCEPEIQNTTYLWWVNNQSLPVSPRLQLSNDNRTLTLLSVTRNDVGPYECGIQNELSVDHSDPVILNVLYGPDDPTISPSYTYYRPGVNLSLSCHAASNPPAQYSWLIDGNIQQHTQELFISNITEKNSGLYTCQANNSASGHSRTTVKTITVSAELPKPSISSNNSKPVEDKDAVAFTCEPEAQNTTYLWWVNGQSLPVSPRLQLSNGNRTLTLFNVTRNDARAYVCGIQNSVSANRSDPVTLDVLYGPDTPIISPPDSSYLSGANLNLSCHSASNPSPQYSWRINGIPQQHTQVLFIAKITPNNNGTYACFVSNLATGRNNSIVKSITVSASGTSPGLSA

[2] = target: T2, human CEACAM6, recombinant (R&D Systems #3934-CM-050) (human, UniProt P40199 35-320); experiment: as above
T2 construct: also called hCEACAM-6
T2 sequence (looked up): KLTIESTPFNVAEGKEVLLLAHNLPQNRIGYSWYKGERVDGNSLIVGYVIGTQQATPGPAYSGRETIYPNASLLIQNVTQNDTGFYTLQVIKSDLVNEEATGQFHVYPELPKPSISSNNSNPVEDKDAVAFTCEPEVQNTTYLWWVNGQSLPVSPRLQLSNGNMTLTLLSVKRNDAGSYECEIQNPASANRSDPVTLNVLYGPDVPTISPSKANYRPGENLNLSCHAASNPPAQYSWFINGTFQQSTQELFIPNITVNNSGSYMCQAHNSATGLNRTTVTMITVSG

[3] = target: T3, CEACAM-8, recombinant (R&D Systems #9639-CM-050) (UniProt P31997 35-320); experiment: as above
T3 sequence (looked up): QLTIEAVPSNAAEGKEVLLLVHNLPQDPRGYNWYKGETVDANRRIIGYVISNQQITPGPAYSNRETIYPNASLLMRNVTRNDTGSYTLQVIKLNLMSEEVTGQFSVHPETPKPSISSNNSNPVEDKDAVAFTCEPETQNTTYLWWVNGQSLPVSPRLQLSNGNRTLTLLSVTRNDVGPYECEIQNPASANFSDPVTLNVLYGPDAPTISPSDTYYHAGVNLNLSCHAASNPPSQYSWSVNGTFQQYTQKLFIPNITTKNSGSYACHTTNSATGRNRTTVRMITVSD

[4] = target: T1, human CEACAM5, recombinant (R&D Systems …); experiment: dual-target ELISA: hCEACAM-5 coated, bsAb titrated, detected with biotinylated hCD40-muIg and streptavidin-HRP, luminescence; signal needs both targets bound
[5] = target: T4, biotinylated human CEACAM5-His (Acro Biosystems #CE5-H82E0) (human, UniProt P06731 35-685, biotinylated (site not stated)); experiment: Octet BLI, captured CEACAM5-biotin, bsAb in solution, 1:1 fit
T4 construct: also called CEACAM5-biotin; captured human CEACAM5-biotin; not shown: His tag
T4 sequence (looked up): T1 sequence (looked up)
Experimental: Kinetic measurements were performed in the Octet RED96 platform using several different setups. […] Monomeric human CD40-His-Avi tag (Acro Biosystems #CD0-H5228), monomeric Human CEACAM5-His (R&D Systems #4128-CM-050) or monomeric Cynomolgus CEACAM5-His (Sino Biological #90891-C08H) were ½ serially diluted in 1× kinetic buffer (Sartorius) starting at 500 nM or 100 nM. […] Binding kinetics was studied in 1× kinetic buffer where association was allowed for 100 sec, 300 sec or 600 sec followed by dissociation for 100 sec, 300 sec or 3600 sec. Sensor tips were regenerated with 10 mM Glycine pH 1.7. Data generated were referenced by subtracting blank or parallel buffer blank, the baseline was aligned to the y-axis, inter-step correction by alignment against dissociation was performed and the data was smoothed by Savitzky-Golay filter in the data analysis software (v9.0.0.14). The processed data was fitted using a 1:1 Langmuir binding model with R² or X² as a measurement of fitting accuracy.
Association was measured for 100 sec and dissociation measured for 100 sec.

[6] = target: T5, human CEACAM5 expressed on cells (CHO-CEACAM5 transfectants; MKN45 and LS174T tumour cells) (human, UniProt P06731 35-685); experiment: flow cytometry on CHO-CEACAM5 cells, fluorochrome-conjugated anti-human IgG, MFI
T5 construct: whole, on cells; also called CEACAM5 on cells; hCEA
T5 sequence (looked up): T1 sequence (looked up)
From the text: (§1) The human CEACAM5 and CEACAM1 genes were cloned into pcDNA3.1, and the vector was subsequently stably transfected into CHO cells. […] Binding of the antibodies was detected using fluorochrome-conjugated anti-human IgG and analyzed using flow cytometry.

[7] = target: T6, human CEACAM1 expressed on CHO cells (human, UniProt P13688 35-526); experiment: flow cytometry on CHO-CEACAM1 cells, fluorochrome-conjugated anti-human IgG, MFI
T6 construct: whole, on cells; also called CHO-CEACAM1; CEACAM1 on cells
T6 sequence (looked up): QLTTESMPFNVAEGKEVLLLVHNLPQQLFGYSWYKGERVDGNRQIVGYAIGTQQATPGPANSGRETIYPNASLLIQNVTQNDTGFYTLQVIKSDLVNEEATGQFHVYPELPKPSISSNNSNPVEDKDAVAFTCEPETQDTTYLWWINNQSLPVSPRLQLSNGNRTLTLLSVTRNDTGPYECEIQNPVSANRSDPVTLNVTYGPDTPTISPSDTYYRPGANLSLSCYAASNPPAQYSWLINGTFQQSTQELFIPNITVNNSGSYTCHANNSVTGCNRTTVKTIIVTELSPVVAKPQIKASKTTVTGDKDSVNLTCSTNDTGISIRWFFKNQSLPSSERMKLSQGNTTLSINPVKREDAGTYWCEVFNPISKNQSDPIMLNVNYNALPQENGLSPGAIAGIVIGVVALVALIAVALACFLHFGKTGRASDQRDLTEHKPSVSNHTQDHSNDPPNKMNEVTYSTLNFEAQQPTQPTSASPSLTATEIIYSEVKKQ
From the text: as §1

[8] = target: human CD40 expressed on cells (CD40 reporter cells, HEK Blue CD40L cells, primary B cells, tumour APCs) (human, UniProt P25942 21-277); experiment: cell-based or functional assay
human CD40 expressed on cells (CD40 reporter cells, HEK Blue CD40L cells, primary B cells, tumour APCs), sequence (P25942 21-277): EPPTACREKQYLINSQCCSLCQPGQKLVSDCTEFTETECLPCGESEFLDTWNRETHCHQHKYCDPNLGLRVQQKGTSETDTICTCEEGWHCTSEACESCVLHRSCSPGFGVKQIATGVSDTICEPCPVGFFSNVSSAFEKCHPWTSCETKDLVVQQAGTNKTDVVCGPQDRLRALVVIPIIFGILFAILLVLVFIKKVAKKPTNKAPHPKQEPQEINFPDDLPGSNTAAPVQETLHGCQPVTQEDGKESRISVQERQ

B1: Multi41 (bispecific antibody)
heavy 1: not shown
light: DIQMTQSPSSLSASVGDRVTITCRASQSISSYLNWYQEKPGKAPKLLIYAASSLQSGVPSRFSGSGSGTDFTLTISSLQPEDFATYYCQQWRSHLFTFGQGTKLEIKRTVAAPSVFIFPPSDEQLKSGTASVVCYLNNFYPREAKVQWKVDNALQSGNSQESVTEQDSKDSTYSLWSTLTLSKADYEKHKVYACEVTHQGLSSPVTKSFNRGEC
heavy 2: EVQLLESGGGLVQPGGSLRLSCAASGFTFSTYGMHWVREAPGKGLEWLSYISGGSSYIFYADSVKGRFTISRDNSKNTLYLQMNSLRAEDTAVYYCARILRGGSGMDLWGQGTLVTVSSASTKGPSVFPLAPSSKSTSGGTAALGCLVKDYFPEPVTVSWNSGALTSGVHTFPAVLQSSGLYSLTSVVEVPSSSLGTQTYICNVNHKPSNTKVDKKVEPKSC
notes: Optimised RUBY format, CEACAM5xCD40; copies: 2 + 2 + 2
EC50 (read off the curve) [1]: ~0.5 nM
binding result [2]: no binding (tested: 100 nM)
binding result [3]: no binding (tested: 100 nM)
EC50 (read off the curve) [4]: ~0.6 nM
Kd [5]: < 0.001 nM
koff [5]: < 1e-07 s⁻¹
kon [5]: 47000 M⁻¹ s⁻¹
EC50 (read off the curve) [6]: ~3 nM
binding result [7]: no binding (tested: about 400 nM)
EC50 of SEAP release, HEK Blue CD40L reporter cells, bsAb crosslinked to CHO-CEACAM5 cells, 0 Raji sink cells/well [8]: 0.03 nM
EC50 of SEAP release, same assay, 10 000 Raji sink cells/well [8]: 0.06 nM
EC50 of SEAP release, same assay, 30 000 Raji sink cells/well [8]: 0.13 nM
EC50 of SEAP release, same assay, 90 000 Raji sink cells/well [8]: 0.36 nM
